Reference: PMC3965691 (Biochemistry, 2011)
Numbering of substitutions follows the chain as printed. Names and notes keep the numbering of the source.

T1: HI-2(1-152) (human, UniProt P41236 1-152)
T1 sequence (looked up): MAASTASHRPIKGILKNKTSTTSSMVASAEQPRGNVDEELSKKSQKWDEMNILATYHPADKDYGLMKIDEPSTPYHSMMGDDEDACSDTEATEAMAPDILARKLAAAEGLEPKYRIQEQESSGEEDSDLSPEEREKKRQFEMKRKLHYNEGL

B1: His6-HI-2 (human phosphatase inhibitor-2, wild type, full length) (natural protein, UniProt P41236 1-205, looked up)
chain: MAASTASHRPIKGILKNKTSTTSSMVASAEQPRGNVDEELSKKSQKWDEMNILATYHPADKDYGLMKIDEPSTPYHSMMGDDEDACSDTEATEAMAPDILARKLAAAEGLEPKYRIQEQESSGEEDSDLSPEEREKKRQFEMKRKLHYNEGLNIKLARQLISKDLHDDDEDEEMLETADGESMNTEESNQGSTPSDQQQNKLRSS
B2: HI-2(I68A) (natural protein, human, UniProt P41236 1-205, looked up)
chain: B1 chain with I68A
B3: GST-Pin1iso (human Pin1 isomerase domain, residues 46-163, fused to GST) (domain or fragment, UniProt Q13526 46-163, looked up)
chain: KNGQGEPARVRCSHLLVKHSQSRRPSSWRQEKITRTKEEALELINGYIQKIKSGEEDFESLASQFSDCSSAKARGDLGAFSRGQMQKPFEDASFALRTGEMSGPVFTDSGIHIILRTE

How the values were obtained:
HI-2(1-152) = target: T1, HI-2(1-152); experiment: pull-down
[1] = target: B1; experiment: pull-down
[2] = target: Pin1 free of GST (thrombin-cleaved GST-Pin1) (human, UniProt Q13526 1-163); experiment: SEC
HI-2(I68A) = target: B2; experiment: pull-down

| Binder | binding result [1] | stoichiometry N [2] | further results |
| --- | --- | --- | --- |
| MADEEKLPPGWEKRMSRSSGRVYYFNHITNASQWERPSGNSSSG (domain or fragment, UniProt Q13526 1-44, looked up) [GST-Pin1ww (human Pin1 WW domain, residues 1-44, fused to GST)] | binds | – | binding result (HI-2(1-152)): binds |
| B1 | – | 1 I-2 per Pin1 (2:2) | – |
| B2 | – | 1 I-2 per Pin1 (1:1) | – |
| MADEEKLPPGWEKRMSRSSGRVYYFNHITNASQWERPSGNSSSG (domain or fragment, human, UniProt Q13526 1-44, looked up, phosphoserine at 16 (PKA)) [PKA phosphorylated GST-Pin1ww] | binds | – | – |
| B3 | – | – | binding result (HI-2(I68A)): binds |
